Source: publication PMC5552956, “The PAS domains of the major sporulation kinase in Bacillus subtilis play a role in tetramer formation that is essential for the autokinase activity” (MicrobiologyOpen, 2017)
Where “and” joins values, the source holds several entries; their conditions need not be identical. Identical values can stand only once.

Key:
[1] = target: KinAN-GFP (Bacillus subtilis); test: cross-linking; cell extracts of B. subtilis lacking native kinA (LB, 10 μmol/L IPTG) incubated with or without bis-maleimidohexane (BMH, sulfhydryl-specific); SDS-PAGE (10%), immunoblot with anti-GFP antibodies; sizes from a regression line of mass standards
[2] = target: KinA^ΔPAS-A-GFP (Bacillus subtilis); test: as above
[3] = target: KinAN-GFP-his6 (Bacillus subtilis); test: native gel or EMSA; blue native PAGE (4-16% gradient gel) of Ni-NTA eluates, immunoblot with anti-GFP antibodies; sizes from a regression line of NativeMark standards
[4] = target: PAS-BC-GFP-his6 (Bacillus subtilis); test: as above
[5] = target: the molecule itself; test: cross-linking; cell extracts of B. subtilis lacking native kinA (LB, 10 μmol/L IPTG) incubated with or without bis-maleimidohexane (BMH, sulfhydryl-specific); SDS-PAGE (10%), immunoblot with anti-GFP antibodies; sizes from a regression line of mass standards

Molecule: KinAN-GFP (domain or fragment)
- stoichiometry N [1]: 4

Molecule: KinA^ΔPAS-A-GFP (domain or fragment)
- stoichiometry N [2]: 4

Molecule: KinAN-GFP-his6 (domain or fragment)
- stoichiometry N [3]: 4 and 2

Molecule: PAS-BC-GFP-his6 (domain or fragment)
- stoichiometry N [4]: 4 and 2

B1: full-length KinA-GFP (natural protein, Bacillus subtilis, UniProt P16497 1-606, looked up)
chain: MEQDTQHVKPLQTKTDIHAVLASNGRIIYISANSKLHLGYLQGEMIGSFLKTFLHEEDQFLVESYFYNEHHLMPCTFRFIKKDHTIVWVEAAVEIVTTRAERTEREIILKMKVLEEETGHQSLNCEKHEIEPASPESTTYITDDYERLVENLPSPLCISVKGKIVYVNSAMLSMLGAKSKDAIIGKSSYEFIEEEYHDIVKNRIIRMQKGMEVGMIEQTWKRLDGTPVHLEVKASPTVYKNQQAELLLLIDISSRKKFQTILQKSRERYQLLIQNSIDTIAVIHNGKWVFMNESGISLFEAATYEDLIGKNIYDQLHPCDHEDVKERIQNIAEQKTESEIVKQSWFTFQNRVIYTEMVCIPTTFFGEAAVQVILRDISERKQTEELMLKSEKLSIAGQLAAGIAHEIRNPLTAIKGFLQLMKPTMEGNEHYFDIVFSELSRIELILSELLMLAKPQQNAVKEYLNLKKLIGEVSALLETQANLNGIFIRTSYEKDSIYINGDQNQLKQVFINLIKNAVESMPDGGTVDIIITEDEHSVHVTVKDEGEGIPEKVLNRIGEPFLTTKEKGTGLGLMVTFNIIENHQGVIHVDSHPEKGTAFKISFPKK
notes: Sporulation kinase KinA, Bacillus subtilis (strains derived from PY79), full length; Tetramer by BMH cross-linking; also called MF3352; source: B. subtilis lacking the native kinA gene, IPTG-inducible promoter (10 μmol/L IPTG, LB), in cell extract
- stoichiometry N [5]: 4

B2: KinA^ΔPAS-AB-GFP (domain or fragment, Bacillus subtilis, UniProt P16497 259-606, looked up)
chain: QTILQKSRERYQLLIQNSIDTIAVIHNGKWVFMNESGISLFEAATYEDLIGKNIYDQLHPCDHEDVKERIQNIAEQKTESEIVKQSWFTFQNRVIYTEMVCIPTTFFGEAAVQVILRDISERKQTEELMLKSEKLSIAGQLAAGIAHEIRNPLTAIKGFLQLMKPTMEGNEHYFDIVFSELSRIELILSELLMLAKPQQNAVKEYLNLKKLIGEVSALLETQANLNGIFIRTSYEKDSIYINGDQNQLKQVFINLIKNAVESMPDGGTVDIIITEDEHSVHVTVKDEGEGIPEKVLNRIGEPFLTTKEKGTGLGLMVTFNIIENHQGVIHVDSHPEKGTAFKISFPKK
notes: KinA of Bacillus subtilis without PAS-A and PAS-B; 'our autokinase-deficient PAS-AB mutant (aa 259-606)'; also called MF3356; source: B. subtilis lacking the native kinA gene, IPTG-inducible promoter (10 μmol/L IPTG, LB), in cell extract
- stoichiometry N [5]: 2
